Legend:
[1] = target: human αvβ3 integrin on cells (human) (UniProt P06756); assay: flow cytometry, AP5-treated αvβ3-CHO cells; 1 µM Integrilin against aPB
[2] = target: human αvβ3 integrin on cells (human) (UniProt P06756); assay: flow cytometry, AP5-treated αvβ3-CHO cells; 1 µM Integrilin against WOW-1 Fab
[3] = target: purified αIIbβ3 from human platelets (human) (UniProt P08514); assay: ELISA on purified integrin, 50 µM MnCl2; half-maximal binding
[4] = target: human αvβ3 integrin on cells (human) (UniProt P06756); assay: flow cytometry binding isotherms, JY cells
[5] = target: human αvβ3 integrin on cells (human) (UniProt P06756); assay: flow cytometry binding isotherm, αvβ3-CHO cells, no treatment
[6] = target: purified αvβ3 receptors from human placenta (human) (UniProt P06756); assay: ELISA on purified integrin, 50 µM MnCl2; half-maximal binding
Chain of purified αvβ3 receptors from human placenta (human) (P06756 31-1048 limits assumed, chain 1 of 2): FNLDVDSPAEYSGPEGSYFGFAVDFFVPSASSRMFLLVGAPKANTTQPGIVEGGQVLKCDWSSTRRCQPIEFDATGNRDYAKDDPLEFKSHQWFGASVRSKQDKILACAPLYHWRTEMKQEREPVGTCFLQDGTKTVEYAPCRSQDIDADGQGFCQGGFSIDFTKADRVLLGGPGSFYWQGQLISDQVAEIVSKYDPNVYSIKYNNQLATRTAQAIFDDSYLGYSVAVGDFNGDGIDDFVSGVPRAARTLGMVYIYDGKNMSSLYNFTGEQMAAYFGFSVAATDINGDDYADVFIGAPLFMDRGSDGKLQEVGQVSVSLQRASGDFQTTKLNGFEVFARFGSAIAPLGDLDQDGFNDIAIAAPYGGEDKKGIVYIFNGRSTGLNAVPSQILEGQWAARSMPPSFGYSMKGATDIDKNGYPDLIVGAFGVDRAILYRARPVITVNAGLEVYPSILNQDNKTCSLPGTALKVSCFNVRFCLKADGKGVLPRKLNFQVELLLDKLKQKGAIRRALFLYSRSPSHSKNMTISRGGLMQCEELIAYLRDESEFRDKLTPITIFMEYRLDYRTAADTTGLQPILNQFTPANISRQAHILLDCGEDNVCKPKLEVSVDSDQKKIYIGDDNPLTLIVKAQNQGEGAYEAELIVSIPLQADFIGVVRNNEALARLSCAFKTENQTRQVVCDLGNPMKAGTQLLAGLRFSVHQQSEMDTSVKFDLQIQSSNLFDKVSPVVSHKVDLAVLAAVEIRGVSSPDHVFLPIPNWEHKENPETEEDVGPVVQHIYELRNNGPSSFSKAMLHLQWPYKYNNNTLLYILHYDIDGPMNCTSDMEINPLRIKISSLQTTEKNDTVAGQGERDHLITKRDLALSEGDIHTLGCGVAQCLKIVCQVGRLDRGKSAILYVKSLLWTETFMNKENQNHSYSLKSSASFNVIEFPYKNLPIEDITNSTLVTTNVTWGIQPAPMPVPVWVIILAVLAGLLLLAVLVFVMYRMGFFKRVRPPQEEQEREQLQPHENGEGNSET
Chain of purified αvβ3 receptors from human placenta (human) (P05106 27-788 limits assumed, chain 2 of 2, further chain): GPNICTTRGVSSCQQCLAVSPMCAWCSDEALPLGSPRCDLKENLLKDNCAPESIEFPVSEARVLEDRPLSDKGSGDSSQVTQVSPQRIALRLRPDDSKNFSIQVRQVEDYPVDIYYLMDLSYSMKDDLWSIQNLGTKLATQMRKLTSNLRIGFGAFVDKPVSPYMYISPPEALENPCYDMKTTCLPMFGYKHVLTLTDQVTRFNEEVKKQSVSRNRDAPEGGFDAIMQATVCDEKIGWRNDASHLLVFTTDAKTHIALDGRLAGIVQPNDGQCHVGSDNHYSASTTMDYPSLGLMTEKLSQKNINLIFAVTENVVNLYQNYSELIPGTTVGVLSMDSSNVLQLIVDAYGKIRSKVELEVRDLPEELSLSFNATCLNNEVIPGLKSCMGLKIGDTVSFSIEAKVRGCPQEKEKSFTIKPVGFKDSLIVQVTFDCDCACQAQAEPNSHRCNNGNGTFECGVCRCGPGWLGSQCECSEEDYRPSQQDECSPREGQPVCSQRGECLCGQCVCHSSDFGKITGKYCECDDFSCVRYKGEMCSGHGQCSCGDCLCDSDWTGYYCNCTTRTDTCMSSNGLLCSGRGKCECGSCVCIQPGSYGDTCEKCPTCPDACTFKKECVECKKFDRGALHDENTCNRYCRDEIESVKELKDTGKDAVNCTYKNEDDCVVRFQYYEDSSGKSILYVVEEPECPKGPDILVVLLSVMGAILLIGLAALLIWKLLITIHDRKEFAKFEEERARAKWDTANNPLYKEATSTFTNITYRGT

[7] = target: human αvβ3 integrin on cells (human) (UniProt P06756); assay: flow cytometry binding isotherm, unstimulated JY cells, one-site fit
[8] = target: human αvβ3 integrin on cells (human) (UniProt P06756); assay: flow cytometry, JY cells, 100 nM phorbol myristate acetate for 15 min
[9] = target: human αvβ3 integrin on cells (human) (UniProt P06756); assay: flow cytometry binding isotherm, αvβ3-CHO cells, activating antibody AP5
[10] = target: human αvβ3 integrin on cells (human) (UniProt P06756); assay: flow cytometry binding isotherm, JY cells stimulated with phorbol myristate acetate, one-site fit
[11] = target: human αvβ3 integrin on cells (human) (UniProt P06756); assay: unstimulated B-lymphoblastoid cells; summary in the description, differs from the 2,600 nM of Example 8

Chain of human αvβ3 integrin on cells (human) (P06756 31-1048, chain 1 of 2): as the sequence (P06756 31-1048 limits assumed, chain 1 of 2) above
Chain of human αvβ3 integrin on cells (human) (P05106 27-788, chain 2 of 2, further chain): as the sequence (P05106 27-788 limits assumed, chain 2 of 2, further chain) above

How did the percent inhibition of aPB binding [1] turn out when Integrilin (peptide) was run?
Its percent inhibition of aPB binding is under 20%.

What about the percent inhibition of WOW-1 Fab binding [2] of the same substance?
The percent inhibition of WOW-1 Fab binding was under 20%.

How did the EC50 [3] turn out when PAC1 Fab was run?
The EC50 was 50 nM.

Which results are given for WOW-1 Fab?
fold increase in binding affinity with phorbol myristate acetate against unstimulated cells [4]: > 30 fold; Bmax [5]: 62 units; Kd [5]: 514 nM; EC50 [6]: 40 nM; Kd [7]: 2600 nM; maximal binding (arbitrary fluorescence units) [7]: 24.8; fold increase in specific binding with phorbol myristate acetate against no agonist [8]: 2.4 fold; Bmax [9]: 65 units; Kd [9]: 119 nM; Kd [10]: 80 nM; maximal binding [10]: 23.5 units; Kd [11]: 2400 nM

From patent publication US20040005550A1, “Methods and compositions useful for targeting activated vitronectin receptor alphavbeta3” (The Scripps Research Institute, priority 1998, published 2004)
